Measurements: paper PMC3115021, “Dynamics of Cdk1 Substrate Specificity during the Cell Cycle” (Molecular Cell, 2011)

B1: FIR1: purified yeast protein tested as Cdk1 substrate (protein, UniProt P40020 1-876, looked up)
Factor interacting with REF2: MSLPVTPVKSKVCSTLSIQHEMDHDQCRDVLCPRENLLAINRTNNIESVAIPRQRSSKNKKPHEHTQSQVRFSIPDPNEISQDSPLKIVFPKSGNETERRMSTSSLLMNSHGHLVDMHSKILVDVPKEVWKFHHNRRKKCESRHRKTRSDVRSNTSSSGKEPNHSRSKSLQSIIVDTMNTYRATEVETSINENTSNISQVSPLNLSFDRPPPLTPEKNLYLTPESPLNRYHLPVPLEISLPPYLSPQNKDKKRSSLVYDGDGYSQFQEGNTSSSTESSLEQPSSSYSDEDDSIPYAHHDVSFELNNADADKLLGIDENANVNLKIQRRNLKNPQHIKSKTDRECEEKNTEKNVSLKILSTPNKLIDIPDLEHMKSPPSTGLNGTLKFFQQFEPSEEPTSPTRQVNPESLDKLDMSFKFPSSTTNNNVDKVHENRNSGDTNNEDFLKVDTSPVNQSFESRRQMLIDLQKSPTNNNPRIHKHRRSRSVHNIDDISLNFEATSTPPAPTSAPSIPVEHSNPCTSIEIPKRSPLRFTSSPKTSDIPPEAQSPKNGSFLQEISVPSIQIIPDESISHTREPSPSLIECPEDENEAFSTEVADHSIAIISETKSVPSIEPFKPLSSFNSFGQEIQNKEPTPLNQTPTDLIGKQRNCVNPHSIPFSVLSSNSQSSQSGSSKSSYNSEFSSNTAITDTTSQPSVTINRSTLEHNFIEEKRSIKNLGHGPPSQKNNYSFPRNKNTPSNRHDLDFNTIYEKRDGKMVEVILLDEDEDVGLKNNDISRTRVCHAQKAKNEQQKKRLSHCNEILGMCDKTADDAKRIIYQLVNEKHKFSEKGQQTKPKKSRVLPPLPFPLYDEKGNSLIPNKYQSSIHNDIPSHRKLK
B2: NDD1: component of the transcription factor complex controlling G2/M-specific genes, tested as Cdk1 substrate (protein, UniProt Q08887 1-554, looked up)
Nuclear division defective …: MDRDISYQQNYTSTGATATSSRQPSTDNNADTNFLKVMSEFKYNFNSPLPTTTQFPTPYSSNQYQQTQDHFANTDAHNSSSNESSLVENSILPHHQQIQQQQQQQQQQQQQQQALGSLVPPAVTRTDTSETLDDINVQPSSVLQFGNSLPSEFLVASPEQFKEFLLDSPSTNFNFFHKTPAKTPLRFVTDSNGAQQSTTENPGQQQNVFSNVDLNNLLKSNGKTPSSSCTGAFSRTPLSKIDMNLMFNQPLPTSPSKRFSSLSLTPYGRKILNDVGTPYAKALISSNSALVDFQKARKDITTNATSIGLENANNILQRTPLRSNNKKLFIKTPQDTINSTSTLTKDNENKQDIYGSSPTTIQLNSSITKSISKLDNSRIPLLASRSDNILDSNVDDQLFDLGLTRLPLSPTPNCNSLHSTTTGTSALQIPELPKMGSFRSDTGINPISSSNTVSFKSKSGNNNSKGRIKKNGKKPSKFQIIVANIDQFNQDTSSSSLSSSLNASSSAGNSNSNVTKKRASKLKRSQSLLSDSGSKSQARKSCNSKSNGNLFNSQ

What was measured:
Test in all cases: Quantitative phosphorylation assay of T33-Sic1ΔC constructs and recombinant substrates
Type in all cases: biochemical
Conditions in all cases: Table S2; purified protein substrate; relative values, not divided by [S]
Clb2-Cdk1 = target: T1, Clb2-Cdk1 (Saccharomyces cerevisiae, UniProt P00546+P24869)
T1 construct: We purified the four cyclin-Cdk1 complexes from yeast; made in house; host or cells: S. cerevisiae strain DOM0077 (gal-CLB2-TAP, sic1 deleted); Cks1 from bacteria
Experimental: (§1) For the quantitative phosphorylation assays of T33-Sic1ΔC constructs and recombinant substrates, substrate concentrations were kept in the range of 0.5–2 μM (in the linear [S] versus v0 range, several-fold below the estimated KM value), and initial velocity conditions were defined as an initial substrate turnover of up to 10% of the total turnover. For the steady-state peptide kinetics of the Histone peptide PKTPKKAKKL, a similar assay composition was used as for protein substrates, and phosphocellulose paper was used for the quantification of the phosphorylated substrate. […]
(§2) similar substrate specificity as the Cln2-Cdk1 version purified using a TAP-tag. N-terminally 6His-tagged recombinant T33-Sic1ΔC constructs and substrates were cloned into the pET28a vector and purified by standard cobalt affinity chromatography and elution with 200 mM imidazole. 6His-Fin1 was purified as described previously (Woodbury and Morgan, 2007). Substrates cloned into the pGEX-4T-1 were purified on glutathione agarose columns using 5 mM reduced glutathione for elution. Cks1 was purified as described previously (Reynard et al., 2000). The optimal working concentration for purified Cks1 was taken as 500 nM based on optimization performed for cyclin-Cdk1 preparations and T33-Sic1ΔC as a substrate.
(§3) For the quantitative phosphorylation assays of T33-Sic1ΔC constructs and recombinant substrates, substrate concentrations were kept in the range of 0.5-2 μM (in the linear [S] vs v0 range, several-fold below the estimated KM value), and the initial velocity conditions were defined as an initial substrate turnover ranging up to 10% of the total turnover. The latter was estimated by a long-term incubation with excess amounts of cyclin-Cdk1 and 32P-γ-ATP in the standard reaction mixture given below. About 1-10 nM of purified kinase complex was used, reaction aliquots were taken at two or more time points, and the reaction was stopped by SDS-PAGE sample buffer. The relative kcat/KM values for the substrates were calculated as the ratio of v0/[S], which was determined from at least two independent experiments. The basal composition of the assay mixture contained 50 mM Hepes, pH 7.4, 100 mM NaCl, 0.1% NP-40, 20 mM imidazole, 0.1 mg/ml 2HA peptide, 2% glycerol, 2 mM EGTA, 0.2 mg/ml BSA, […], and 500 μM ATP (with added 32P-γ-ATP (Perkin Elmer)).
(§4) About 1-10 nM of purified kinase complex was used, reaction aliquots were taken at two or more time points, and the reaction was stopped by SDS-PAGE sample buffer. For the steady-state peptide kinetics of the Histone peptide PKTPKKAKKL, a similar assay composition was used as for protein substrates and the standard phosphocellulose method was applied for the quantification of the phosphorylated substrate (Loog and Morgan, 2005). Synthetic peptides as competitor agents were used in 4 mM final concentrations. […]

Clb3-Cdk1 = target: T2, Clb3-Cdk1 (Saccharomyces cerevisiae, UniProt P00546+P24870)
T2 construct: We purified the four cyclin-Cdk1 complexes from yeast; made in house; host or cells: S. cerevisiae strain DOM0957 (gal-CLB3-TAP, sic1 deleted); Cks1 from bacteria
Experimental: as §1, §2, §3, §4

Clb5-Cdk1 = target: T3, Clb5-Cdk1 (Saccharomyces cerevisiae, UniProt P00546+P30283)
T3 construct: We purified the four cyclin-Cdk1 complexes from yeast; made in house; host or cells: S. cerevisiae strain DOM0076 (gal-CLB5-TAP, sic1 deleted); Cks1 from bacteria
Experimental: as §1, §2, §3, §4

Cln2-Cdk1 = target: T4, Cln2-Cdk1 (Saccharomyces cerevisiae, UniProt P00546+P20438)
T4 construct: We purified the four cyclin-Cdk1 complexes from yeast; made in house; host or cells: S. cerevisiae strain DMY305 (galactose-induced); Cks1 from bacteria
Experimental: as §1, §2, §3, §4

Clb2hpm-Cdk1 = target: T5, Clb2hpm-Cdk1 (Saccharomyces cerevisiae, UniProt P00546)
T5 construct: made in house; host or cells: S. cerevisiae strain DOM0964 (gal-CLB2hpm-TAP, sic1 deleted); Cks1 from bacteria
Experimental: (§5) For the quantitative phosphorylation assays of T33-Sic1ΔC constructs and recombinant substrates, substrate concentrations were kept in the range of 0.5–2 μM (in the linear [S] versus v0 range, several-fold below the estimated KM value), and initial velocity conditions were defined as an initial substrate turnover of up to 10% of the total turnover. For the steady-state peptide kinetics of the Histone peptide PKTPKKAKKL, a similar assay composition was used as for protein substrates, and phosphocellulose paper was used for the quantification of the phosphorylated substrate.
(§6) Supplemental Experimental Procedures
(§7) Plasmid constructs and yeast strains
(§8) For tandem affinity purification (TAP) of cyclin-Cdk1 complexes, the cyclin genes were cloned into the 2 micron vector pRSAB1234 containing a GAL1 promoter and the C-terminal TAP-tag. To purify different 6His-T33-Sic1ΔC forms for kinase assays, the C-terminally truncated fragment of Sic1 (with a stop codon inserted after amino acid 215) was cloned into the NheI/BamHI site of the bacterial expression vector pET28a (Invitrogen). Mutagenesis of cyclins or substrates was performed using single-stranded pRSAB1234 or pET28a vector constructs as templates. The triple mutants in the hydrophobic patch (hpm) of Clb5 and Clb2 were described previously (Loog and Morgan, 2005), and the hpm of Clb3 (Phe-201, Leu-205 and Trp-208 mutated to alanines) was designed according to sequence homology with other B-type cyclins. In T33-Sic1ΔC constructs, the other Cdk sites bearing the consensus motif S/T-P were mutated to Ala-Ala in order to prevent any possible (pseudo)substrate competition. The other Cdk substrates were cloned as full-length forms into bacterial expression vectors pET28a or pGEX-4T-1. Cdh1 was purified using the baculovirus system and was a kind gift from Monica Rodrigo-Brenni (UCSF). […]
The […]
(§9) pRSAB1234 analogously to the cyclin-Cdk1 complexes. For C-terminal tagging of cyclin genes in their chromosomal loci, the Pringle method was applied (Longtine et al., 1998). Lists of plasmid […]
(§10) The TAP method was applied for purification of cyclin-Cdk1 complexes and Swe1 as described previously for Clb5-TAP-Cdk1 and Clb2-TAP-Cdk1 (Puig et al., 2001; Ubersax et al., 2003). […]
as §2, with “tagged” for “similar substrate specificity as the Cln2-Cdk1 version purified using a TAP-tag. N-terminally 6His-tagged”
as §3
(§11) About 1-10 nM of purified kinase complex was used, reaction aliquots were taken at two or more […]

Clb3hpm-Cdk1 = target: T6, Clb3hpm-Cdk1 (Saccharomyces cerevisiae, UniProt P00546+P24870)
T6 construct: made in house; host or cells: S. cerevisiae strain MK0168 (gal-CLB3hpm-TAP, sic1 deleted); Cks1 from bacteria
Experimental: as §5, §6, §7, §8
The […]
as §9, §10
as §2, with “tagged” for “similar substrate specificity as the Cln2-Cdk1 version purified using a TAP-tag. N-terminally 6His-tagged”
as §3, §11

Clb5hpm-Cdk1 = target: T7, Clb5hpm-Cdk1 (Saccharomyces cerevisiae, UniProt P00546)
T7 construct: made in house; host or cells: S. cerevisiae strain DOM0963 (gal-CLB5hpm-TAP, sic1 deleted); Cks1 from bacteria
Experimental: as §5, §6, §7, §8
The […]
as §9, §10
as §2, with “tagged” for “similar substrate specificity as the Cln2-Cdk1 version purified using a TAP-tag. N-terminally 6His-tagged”
as §3, §11

T2 sequence (P00546 2-298 limits assumed): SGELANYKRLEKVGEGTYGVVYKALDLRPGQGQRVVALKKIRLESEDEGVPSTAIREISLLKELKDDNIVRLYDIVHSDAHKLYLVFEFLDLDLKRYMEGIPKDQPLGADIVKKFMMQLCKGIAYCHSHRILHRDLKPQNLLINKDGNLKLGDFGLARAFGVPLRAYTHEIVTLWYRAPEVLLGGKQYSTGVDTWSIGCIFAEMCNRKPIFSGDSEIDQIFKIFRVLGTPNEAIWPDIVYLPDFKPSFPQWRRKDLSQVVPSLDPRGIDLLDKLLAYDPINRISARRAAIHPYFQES
T2 sequence (P24870 whole entry partner): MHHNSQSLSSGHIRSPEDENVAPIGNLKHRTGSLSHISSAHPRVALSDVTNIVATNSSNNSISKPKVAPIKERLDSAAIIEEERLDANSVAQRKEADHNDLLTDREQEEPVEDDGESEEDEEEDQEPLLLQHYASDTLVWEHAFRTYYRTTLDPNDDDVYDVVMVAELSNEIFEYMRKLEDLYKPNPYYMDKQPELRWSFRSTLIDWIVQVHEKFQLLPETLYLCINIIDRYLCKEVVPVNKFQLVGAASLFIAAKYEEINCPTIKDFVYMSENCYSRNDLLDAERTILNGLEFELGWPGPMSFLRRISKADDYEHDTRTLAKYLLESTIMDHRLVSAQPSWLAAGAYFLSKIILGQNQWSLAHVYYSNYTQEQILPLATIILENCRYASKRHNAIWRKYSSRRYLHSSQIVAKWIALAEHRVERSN
T2 sequence (P20486 whole entry partner): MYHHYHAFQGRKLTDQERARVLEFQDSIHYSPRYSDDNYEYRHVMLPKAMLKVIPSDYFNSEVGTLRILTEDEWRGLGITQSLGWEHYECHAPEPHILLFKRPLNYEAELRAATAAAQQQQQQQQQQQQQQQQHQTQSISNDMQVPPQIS
T4 sequence (P00546 2-298 limits assumed): as the sequence (P00546 2-298 limits assumed) above
T4 sequence (P20438 whole entry partner): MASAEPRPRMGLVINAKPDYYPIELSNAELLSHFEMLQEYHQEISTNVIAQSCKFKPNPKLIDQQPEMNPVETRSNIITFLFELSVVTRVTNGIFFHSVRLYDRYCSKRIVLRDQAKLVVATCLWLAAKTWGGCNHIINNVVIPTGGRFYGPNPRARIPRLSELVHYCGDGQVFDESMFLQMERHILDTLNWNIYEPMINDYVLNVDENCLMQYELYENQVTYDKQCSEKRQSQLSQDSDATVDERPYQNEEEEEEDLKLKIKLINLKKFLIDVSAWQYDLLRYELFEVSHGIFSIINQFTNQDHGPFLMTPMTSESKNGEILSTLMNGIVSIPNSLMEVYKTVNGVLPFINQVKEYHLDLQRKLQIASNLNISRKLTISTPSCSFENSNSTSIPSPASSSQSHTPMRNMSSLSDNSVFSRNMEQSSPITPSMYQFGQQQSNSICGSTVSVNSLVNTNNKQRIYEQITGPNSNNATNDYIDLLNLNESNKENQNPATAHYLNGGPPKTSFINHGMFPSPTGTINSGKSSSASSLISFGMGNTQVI
T4 sequence (P20486 whole entry partner): as the sequence (P20486 whole entry partner) above
T7 sequence (P00546 2-298 limits assumed): as the sequence (P00546 2-298 limits assumed) above
T1 sequence (P00546 2-298 limits assumed): as above
T1 sequence (P24869 2-491 partner limits assumed): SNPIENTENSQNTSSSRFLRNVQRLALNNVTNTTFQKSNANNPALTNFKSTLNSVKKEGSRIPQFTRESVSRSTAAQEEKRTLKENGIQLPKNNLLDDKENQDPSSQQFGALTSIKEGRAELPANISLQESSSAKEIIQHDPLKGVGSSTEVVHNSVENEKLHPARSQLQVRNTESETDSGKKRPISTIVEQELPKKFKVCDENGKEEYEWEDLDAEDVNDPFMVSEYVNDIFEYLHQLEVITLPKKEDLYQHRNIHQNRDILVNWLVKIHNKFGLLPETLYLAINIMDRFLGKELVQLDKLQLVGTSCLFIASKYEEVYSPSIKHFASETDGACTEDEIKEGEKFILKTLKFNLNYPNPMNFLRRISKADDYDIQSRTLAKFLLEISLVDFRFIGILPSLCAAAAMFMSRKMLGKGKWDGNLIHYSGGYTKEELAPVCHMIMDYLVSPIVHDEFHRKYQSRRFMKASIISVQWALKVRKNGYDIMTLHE
T1 sequence (P20486 whole entry partner): as the sequence (P20486 whole entry partner) above
T3 sequence (P00546 2-298 limits assumed): as the sequence (P00546 2-298 limits assumed) above
T3 sequence (P30283 whole entry partner): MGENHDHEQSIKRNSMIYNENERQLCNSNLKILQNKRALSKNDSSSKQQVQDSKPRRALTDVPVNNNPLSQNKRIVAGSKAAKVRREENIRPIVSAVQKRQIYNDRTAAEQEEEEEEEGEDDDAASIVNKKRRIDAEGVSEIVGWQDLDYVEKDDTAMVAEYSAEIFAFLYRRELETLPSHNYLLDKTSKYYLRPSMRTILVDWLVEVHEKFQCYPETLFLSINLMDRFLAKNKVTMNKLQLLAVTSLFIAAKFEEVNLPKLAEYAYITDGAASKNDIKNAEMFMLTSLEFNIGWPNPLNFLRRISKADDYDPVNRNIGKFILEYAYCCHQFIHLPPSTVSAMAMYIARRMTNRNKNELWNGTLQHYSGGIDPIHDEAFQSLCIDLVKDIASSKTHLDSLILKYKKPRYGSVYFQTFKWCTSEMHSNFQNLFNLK
T3 sequence (P20486 whole entry partner): as the sequence (P20486 whole entry partner) above
T5 sequence (P00546 2-298 limits assumed): as the sequence (P00546 2-298 limits assumed) above

Molecule | kcat/KM, Clb2 (Clb2-Cdk1) [relative units] | kcat/KM, Clb3 (Clb3-Cdk1) [relative units] | kcat/KM, Clb5 (Clb5-Cdk1) [relative units] | kcat/KM, Cln2 (Cln2-Cdk1) [relative units] | kcat/KM, Clb2hpm (Clb2hpm-Cdk1) [relative units] | kcat/KM, Clb3hpm (Clb3hpm-Cdk1) [relative units] | kcat/KM, Clb5hpm (Clb5hpm-Cdk1) [relative units]
ASH1: transcription factor, purified protein tested as Cdk1 substrate | 0.462 | 0.697 | 0.111 | 0.422 | 0.389 | 0.134 | 0.052
Histone H1 [reference compound] | 4.900 | 2.237 | 0.605 | 1.394 | 4.287 | 1.957 | 0.427
B1 | 0.836 | 0.223 | 0.032 | 0.042 | 0.111 | 0.017 | 0.008
B2 | 3.129 | 2.121 | 0.388 | 0.143 | 1.108 | 0.222 | 0.096
